Laboratory results taken from doi:10.1101/2025.02.06.636796.

What was measured:
[1] = target: Taxol-stabilized microtubules of mouse brain tubulin (untreated, wild-type) (mouse) (UniProt P68369); test: cell lysate-based TIRF microscopy on immobilised microtubules
[2] = target: Taxol-stabilized microtubules of mouse brain tubulin (untreated, wild-type) (mouse) (UniProt P68369); test: FRAP in TIRF microscopy on immobilised microtubules

cumulative fluorescent signal on MTs [1]: 395
density on MTs at 10x lysate dilution [1]: 2980
density on MTs at 100x lysate dilution [1]: 731
fluorescent intensity on microtubules [1]: 194
fluorescence recovery at 6.5 min after photobleaching [2]: 20%
Substance: YFP-Trim69 wild type (Tripartite motif protein 69) (from UniProt Q86WT6 1-500) (natural protein)
